Assay [1] has as its target T1, GAL4(TA)-TRAF1 co-expressed with directly expressed TRAF2 (yeast; murine, UniProt P39428 2-409; P39429 1-501, limits assumed).
T1 construct: also called GAL4(TA)-TRAF1 + TRAF2; pPC86TRAF1 with pPCTRAF2
T1 sequence 1: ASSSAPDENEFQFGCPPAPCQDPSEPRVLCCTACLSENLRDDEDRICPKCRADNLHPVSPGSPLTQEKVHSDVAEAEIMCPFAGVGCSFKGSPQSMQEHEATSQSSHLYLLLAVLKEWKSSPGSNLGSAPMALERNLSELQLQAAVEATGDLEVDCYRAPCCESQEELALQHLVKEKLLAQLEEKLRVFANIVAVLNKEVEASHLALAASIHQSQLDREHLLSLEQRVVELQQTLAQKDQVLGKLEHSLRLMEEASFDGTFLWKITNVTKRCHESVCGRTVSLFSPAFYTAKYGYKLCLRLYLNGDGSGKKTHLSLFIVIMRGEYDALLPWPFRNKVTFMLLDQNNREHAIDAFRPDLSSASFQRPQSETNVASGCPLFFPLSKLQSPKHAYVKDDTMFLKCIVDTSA
T1 sequence 2: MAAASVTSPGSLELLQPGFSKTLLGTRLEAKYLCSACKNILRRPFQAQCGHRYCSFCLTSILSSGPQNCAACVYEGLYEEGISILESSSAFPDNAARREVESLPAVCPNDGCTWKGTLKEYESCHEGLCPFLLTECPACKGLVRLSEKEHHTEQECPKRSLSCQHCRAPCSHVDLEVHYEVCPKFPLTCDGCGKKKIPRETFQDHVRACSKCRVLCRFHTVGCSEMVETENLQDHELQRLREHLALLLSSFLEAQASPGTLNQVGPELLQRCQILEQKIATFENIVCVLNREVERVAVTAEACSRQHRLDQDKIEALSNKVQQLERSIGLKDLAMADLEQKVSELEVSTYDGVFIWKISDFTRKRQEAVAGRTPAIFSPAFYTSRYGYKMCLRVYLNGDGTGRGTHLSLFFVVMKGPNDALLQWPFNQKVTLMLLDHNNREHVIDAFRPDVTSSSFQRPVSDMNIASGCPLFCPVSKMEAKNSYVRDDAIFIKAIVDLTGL
Description: yeast three-component assay with TRAF2 (no NLS) expressed directly; growth on trp- leu- his- medium with 20 mM 3-aminotriazole. As for the experimental part: HF7c cells were sequentially transformed with plasmids (see text) encoding the indicated GAL4 DNA-binding domain (DB) fusion proteins, the GAL4 transcriptional activation domain (TA) TRAF1 fusion protein, and TRAF2 or TRAF2 fused to the simian virus 40 large tumor antigen nuclear localization signal (NLS). The final transformation mixtures were plated onto synthetic dextrose plates lacking trp, leu, his and containing 20 mM 3-aminotriazole. Plus signs indicate growth of transformed yeast colonies on the respective plates. *See Table 2.

The target of assay [2] is T2, TNF Receptor Associated Factor 1, purified from CT6 cells (murine, UniProt P39428 1-409, N-terminally blocked (so in the source); nature of the block not stated)).
T2 construct: also called TRAF1; protein band at 45-50 kd
T2 sequence: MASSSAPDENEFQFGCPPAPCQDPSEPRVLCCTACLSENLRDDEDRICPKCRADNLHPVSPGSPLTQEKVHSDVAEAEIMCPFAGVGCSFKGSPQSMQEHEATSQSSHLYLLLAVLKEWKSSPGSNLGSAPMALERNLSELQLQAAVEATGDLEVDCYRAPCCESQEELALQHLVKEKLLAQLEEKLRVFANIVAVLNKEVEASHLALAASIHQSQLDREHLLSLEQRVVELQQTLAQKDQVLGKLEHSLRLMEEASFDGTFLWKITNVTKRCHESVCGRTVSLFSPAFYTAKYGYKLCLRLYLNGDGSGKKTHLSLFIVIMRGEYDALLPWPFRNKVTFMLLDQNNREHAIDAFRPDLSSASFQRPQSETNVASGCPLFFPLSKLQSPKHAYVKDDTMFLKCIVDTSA
Description: band eluted specifically from the GST-hTNF-R2icd affinity column and identified by peptide sequencing; association may be indirect (through TRAF2). As for the experimental part: For large scale purification of hTNF-R2icd associated factors 60 l of CT6 cells (3×10^10 cells) were harvested and washed twice with cold PBS. All subsequent operations were carried out at 4° C. The cells were lysed by adding 120 ml of 0.1% NP40 lysis buffer containing 100 mM NaCl and rocked gently for 30 min. Insoluble material was removed by centrifugation for 10 min at 10,000×g. The supernatant was then centrifuged at 100,000×g for 1 hr and dialyzed against lysis buffer containing 500 mM NaCl. All subsequent purification steps were carried out in lysis buffer containing 500 mM NaCl. The cell lysate was passed through a 15 ml glutathione-agarose GST-hTNF-R2icd(-37) fusion protein preabsorption column. The flow-through was applied to a 0.3 ml Affigel10/15 GST-hTNF-R2icd fusion protein affinity column. For control, the lysate was run through a similar Affigel10/15 GST-hTNF-R2icd(-37) fusion protein affinity column in parallel. After extensive washing, proteins bound to the resins were eluted with five column volumes of ImmunoPure Gentle Ag1Ab Elution Buffer (Pierce) containing, 0.1 M DTT, precipitated with Methanol/Chloroform and resuspended in SDS sample buffer containing 5% SDS. One tenth of the material was separated by SDS-PAGE under reducing conditions and visualized by silver staining (FIG. 9).

Assay [3] concerns the target T3, GST-TRAF2 fusion protein (murine, UniProt P39429 1-501).
T3 construct: Expressed in E. coli in the presence of 1 mM ZnCl2; also called GST-TRAF2 fusion protein beads; not shown: glutathione S-transferase as encoded by vector pGEX-2TK, with the vector's linker
T3 sequence: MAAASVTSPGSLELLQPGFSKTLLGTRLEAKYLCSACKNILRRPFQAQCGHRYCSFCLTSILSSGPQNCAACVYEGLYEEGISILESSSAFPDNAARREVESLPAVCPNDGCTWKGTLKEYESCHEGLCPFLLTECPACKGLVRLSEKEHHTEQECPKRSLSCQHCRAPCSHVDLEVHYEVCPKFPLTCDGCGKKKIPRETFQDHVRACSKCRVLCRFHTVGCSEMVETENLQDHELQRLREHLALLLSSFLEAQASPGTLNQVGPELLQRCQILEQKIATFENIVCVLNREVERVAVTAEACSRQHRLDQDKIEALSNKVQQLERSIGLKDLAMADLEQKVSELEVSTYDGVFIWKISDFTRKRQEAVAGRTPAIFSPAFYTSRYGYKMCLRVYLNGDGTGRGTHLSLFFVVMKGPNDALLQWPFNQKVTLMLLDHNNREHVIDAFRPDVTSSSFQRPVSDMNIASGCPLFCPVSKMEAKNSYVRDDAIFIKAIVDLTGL
Kind of assay: GST-TRAF2 beads incubated with 293/TNF-R2 cell lysate; SDS-PAGE and Western blot with anti-hTNF-R2 antibody. On the procedure:
FIG. 16. […] Reactions were analyzed by SDS-PAGE and Western blot analysis using anti-human TNF-R1 monoclonal antibody 986 (0.5 μg/ml) and anti-human TNF-R2 monoclonal antibody 1036 (0.5 μg/ml). An arrow indicates the 75-80 kd hTNF-R2 band that is coprecipitated specifically with the GST-TRAF2 fusion protein. Molecular weight markers are indicated on the right in kd.
An expression vector encoding a GST-TRAF2 fusion protein was constructed. The TRAF2 coding region was amplified from pPC86TRAF2 by PCR with Pfu DNA polymerase as described above using the oligonucleotide primers 5'-[…] TTGT-3' (SEQ. ID. NO: 53) and 5'-[…]-3' (SEQ. ID. NO: 54). The amplified 1.6 kb DNA fragment was blunt-ended using *E. coli* DNA polymerase I, digested with BamHI and cloned into BamHI/SmaI-digested pGEX-2TK vector. The GST-TRAF2 fusion protein was expressed in the presence of 1 mM ZnCL_2 and purified as described above. […] Primary antibodies directed against the extracellular domains of hTNF-R2 and hTNF-R1 (as a control) were used at a concentration of 0.5 µg/ml and the secondary sheep anti-mouse horseradish peroxidase conjugate (Amersham) at a dilution of 1:6000.

B1: GAL4 DNA-binding domain fused to the intracellular domain of the murine TNF-R2 (other, yeast;murine, UniProt P04386 1-147, looked up)
chain: MKLLSSIEQACDICRLKKLKCSKEKPKCAKCLKNNWECRYSPKTKRSPLTRAHLTEVESRLERLEQLFLLIFPREDLDMILKMDSLQDIKALLTGLFVQDNVNKDAVTDRLASVETDMPLTLRQHRISATSSSEESSNKGQRQLTVSKKKPSCLQRDAKVPHVPDEKSQDAVGLEQQHLLTTAPSSSSSSLESSASAGDRRAPPGGHPQARVMAEAQGFQEARASSRISDSSHGSHGTHVNVTCIVNVCSSSDHSSQCSSQASATVGDPDAKPSASPKDEQVPFSQEECPSQSPCETTETLQSHEKPLPLGVPDMGMKPSQAGWFDQIAVKVA
notes: also called GAL4(DB)-mTNF-R2icd; pPC97-mTNF-R2icd
Regarding B1, in assay [1], the binding result is “binds”.

B2: GST-hTNF-R2icd fusion protein (other, human, UniProt P20333 288-461, looked up)
chain: KKKPLCLQREAKVPHLPADKARGTQGPEQQHLLITAPSSSSSSLESSASALDRRAPTRNQPQAPGVEASGAGEARASTGSSDSSPGGHGTQVNVTCIVNVCSSSDHSSQCSSQASSTMGDTDSSPSESPKDEQVPFSKEECAFRSQLETPETLLGSTEEKPLPLGVPDAGMKPS
notes: domain: intracellular domain; Expressed in E. coli; also called pGST-hTNF-R2icd; wild type (wt) GST-hTNF-R2icd; not shown: glutathione S-transferase as encoded by vector pGEX-2TK (Pharmacia), with the vector's linker up to the BamHI site
Turning to B2, the binding result in assay [2] is on record as “binds”.

B3: GAL4 DNA-binding domain fused to the intracellular domain of human TNF-R2 (other, yeast;human, UniProt P04386 1-147, looked up)
chain: MKLLSSIEQACDICRLKKLKCSKEKPKCAKCLKNNWECRYSPKTKRSPLTRAHLTEVESRLERLEQLFLLIFPREDLDMILKMDSLQDIKALLTGLFVQDNVNKDAVTDRLASVETDMPLTLRQHRISATSSSEESSNKGQRQLTVSKKKPLCLQREAKVPHLPADKARGTQGPEQQHLLITAPSSSSSSLESSASALDRRAPTRNQPQAPGVEASGAGEARASTGSSDSSPGGHGTQVNVTCIVNVCSSSDHSSQCSSQASSTMGDTDSSPSESPKDEQVPFSKEECAFRSQLETPETLLGSTEEKPLPLGVPDAGMKPS
notes: also called GAL4(DB)-hTNF-R2icd; pPC97-hTNF-R2icd
Turning to B3, the binding result in assay [1] is “binds”.

B4: human type 2 TNF receptor, wild type full length (receptor, UniProt P20333 23-461, looked up)
chain: LPAQVAFTPYAPEPGSTCRLREYYDQTAQMCCSKCSPGQHAKVFCTKTSDTVCDSCEDSTYTQLWNWVPECLSCGSRCSSDQVETQACTREQNRICTCRPGWYCALSKQEGCRLCAPLRKCRPGFGVARPGTETSDVVCKPCAPGTFSNTTSSTDICRPHQICNVVAIPGNASMDAVCTSTSPTRSMAPGAVHLPQPVSTRSQHTQPTPEPSTAPSTSFLLPMGPSPPAEGSTGDFALPVGLIVGVTALGLLIIGVVNCVIMTQVKKKPLCLQREAKVPHLPADKARGTQGPEQQHLLITAPSSSSSSLESSASALDRRAPTRNQPQAPGVEASGAGEARASTGSSDSSPGGHGTQVNVTCIVNVCSSSDHSSQCSSQASSTMGDTDSSPSESPKDEQVPFSKEECAFRSQLETPETLLGSTEEKPLPLGVPDAGMKPS
notes: whole, on cells; Whole receptor made by transfected cells, assayed after detergent lysis, not on intact cells; also called hTNF-R2; 75-80 kd hTNF-R2
B4: in assay [3], the binding result was “binds”.

Source of the values: patent publication US7244836 (Genentech, dated 2007).
